1 molecule from patent publication US20150246949A1, “Desmoglein 2 (DSG2) Binding Proteins and Uses Therefor” (UNIVERSITY OF WASHINGTON THROUGH ITS CENTER FOR …, priority 2012, published 2015) can be followed below.

The target of this experiment is T1, soluble recombinant DSG2 (Homo sapiens, UniProt Q14126).
T1 construct: purchased Leinco Technologies, Inc. (St. Louis, Mo.)
T1 sequence (Q14126 50-609 limits assumed): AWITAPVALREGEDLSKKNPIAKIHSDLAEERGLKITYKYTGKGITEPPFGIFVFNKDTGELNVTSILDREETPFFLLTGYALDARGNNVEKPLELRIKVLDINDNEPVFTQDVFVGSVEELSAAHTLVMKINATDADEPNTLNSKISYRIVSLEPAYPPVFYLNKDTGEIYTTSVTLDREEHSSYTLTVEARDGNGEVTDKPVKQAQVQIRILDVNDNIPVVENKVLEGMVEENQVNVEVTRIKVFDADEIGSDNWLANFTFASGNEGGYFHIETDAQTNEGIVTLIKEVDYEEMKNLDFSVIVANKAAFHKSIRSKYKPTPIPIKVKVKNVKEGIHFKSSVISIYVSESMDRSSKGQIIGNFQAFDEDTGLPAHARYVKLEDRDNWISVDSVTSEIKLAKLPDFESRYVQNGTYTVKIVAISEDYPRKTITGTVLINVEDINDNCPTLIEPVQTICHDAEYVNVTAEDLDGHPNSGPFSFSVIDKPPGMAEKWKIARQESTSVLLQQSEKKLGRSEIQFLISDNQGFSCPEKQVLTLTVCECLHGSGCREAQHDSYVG
Description: Western blot of dimeric Ad3 fiber knob mutants probed with soluble DSG2. It is filed as binding. The note with it: purified dimerized knob mutants. The text has this:
FIG. 1. Residues found to be critically involved in binding to DSG2. A) Shown are the amino acid sequences of the Ad3 and Ad14p1 fiber knob. Beta sheets present in the Ad3 knob (PDB accession number 1H7Z_A) and Ad14 knob (PDB: 3F0Y_A) are indicated by lines. Black arrows indicate residues within the Ad3 fiber knob which, when mutated individually, ablate or reduce binding to DSG2. […] B) Schematic structure of dimeric Ad3 fiber knob mutants. The fiber knob domain and one shaft motif was fused through a flexible linker to a homodimerizing K-coil domain (41). The proteins are self-dimerizing and can be purified by His-Ni-NTA affinity chromatography. C-F) Analysis of binding of dimeric Ad3 fiber knob mutants to soluble DSG2. C and D) Coomassie staining. 10 μg of purified Ad3 fiber knob (unboiled) were loaded per lane. Trimeric forms of the fiber knobs are indicated by an arrow. The gel contained SDS and the loading buffer containing DTT, which caused the disassembly of dimers of trimeric fiber knobs as previously reported (41). E and F): Western blot using soluble recombinant DSG2 as a probe, followed by anti-DSG2-mAb and anti-mouse IgG-HRP. For comparison, JO-1 (0.5 μg/lane) is shown. The Western blots were scanned and signals were quantified.
Mini-PROTEAN precast gels (BIO-RAD, Hercules, Calif.) with 4-15% gradient polyacrylamide were used. A total of […] protein mixed with 2× loading buffer (10 mM Tris-HCl, pH6.8, 200 mM DTT, 4% SDS, 20% glycerol, 0.2% bromophenol blue) was loaded per lane. Samples were either boiled (B) for 5 min or loaded unboiled (UB). The following running buffer was used: 25 mM Tris, pH8.3, 0.192 M glycine, 0.1% SDS. After electrophoresis, proteins were transferred to nitrocellulose and incubated with recombinant human DSG2 protein and anti-DSG2 antibodies as described previously (42). The Western blots were scanned and quantified using the ImageJ 1.32 software (National Institutes of Health, Bethesda, Md.). JO-1 band intensity was set as 100%. […]
A general note: In western blotting, separated proteins are transferred to a membrane and probed.

B1: D261N (protein)
chain: MKVSALKEKVSALKEKVSALKEKVSALKEKVSALKEGSGGGSGGGSGGGSNSIALKNNTLWTGPKPEANCIIEYGKQNPDSKLTLILVKNGGIVNGYVTLMGASDYVNTLFKNKNVSINVELYFDATGHILPDSSSLKTDLELKYKQTADFSARGFMPSTTAYPFVLPNAGTHNENYIFGQCYYKASNGALFPLEVTVMLNKRLPDSRTSYVMTFLWSLNAGLAPETTQATLITSPFTFSYIREDD
Regarding B1, the “DSG2 binding in Western blot compared to JO-1” value is listed as “almost completely ablated for DSG2 binding”.
